± gives the standard deviation of the averaged measurements.
Legend:
hTERT-HMEC = test: percentage of EdU-negative (G0-arrested) nuclei per well, 72 h; higher = more G0 arrest; conditions: reference: sequence is the full UniProt precursor, the tested protein was the secreted form or ectodomain
MCF7 = test: as above; conditions: reference: sequence is the full UniProt precursor, the tested protein was the secreted form or ectodomain
[1] = protein concentration 0.0122857 µM
[2] = protein concentration 0.122857 µM
[3] = protein concentration 0.0225 µM
[4] = protein concentration 0.01425 µM
[5] = protein concentration 0.1425 µM
[6] = protein concentration 0.0257143 µM
[7] = protein concentration 0.257143 µM
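Further: secreted proteins added to cultured cells, EdU pulse at the end, nuclei found by Hoechst imaging, EdU status from nuclear versus surrounding ring intensity ratio, PBS as neutral control.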

Row | Sequence | percentage of EdU-negative (hTERT-HMEC; [3]) [%] | percentage of EdU-negative (hTERT-HMEC; protein concentration 0.225 µM) [%] | percentage of EdU-negative (MCF7; [3]) [%] | percentage of EdU-negative (MCF7; protein concentration 0.225 µM) [%] | also measured
1 | MKILILGIFLFLCSTPAWAKEKHYYIGIIETTWDYASDHGEKKLISVDTEHSNIYLQNGPDRIGRLYKKALYLQYTDETFRTTIEKPVWLGFLGPIIKAETGDKVYVHLKNLASRPYTFHSHGITYYKEHEGAIYPDNTTDFQRADDKVYPGEQYTYMLLATEEQSPGEGDGNCVTRIYHSHIDAPKDIASGLIGPLIICKKDSLDKEKEKHIDREFVVMFSVVDENFSWYLEDNIKTYCSEPEKVDKDNEDFQESNRMYSVNGYTFGSLPGLSMCAEDRVKWYLFGMGNEVDVHAAFFHGQALTNKNYRIDTINLFPATLFDAYMVAQNPGEWMLSCQNLNHLKAGLQAFFQVQECNKSSSKDNIRGKHVRHYYIAAEEIIWNYAPSGIDIFTKENLTAPGSDSAVFFEQGTTRIGGSYKKLVYREYTDASFTNRKERGPEEEHLGILGPVIWAEVGDTIRVTFHNKGAYPLSIEPIGVRFNKNNEGTYYSPNYNPQSRSVPPSASHVAPTETFTYEWTVPKEVGPTNADPVCLAKMYYSAVEPTKDIFTGLIGPMKICKKGSLHANGRQKDVDKEFYLFPTVFDENESLLLEDNIRMFTTAPDQVDKEDEDFQESNKMHSMNGFMYGNQPGLTMCKGDSVVWYLFSAGNEADVHGIYFSGNTYLWRGERRDTANLFPQTSLTLHMWPDTEGTFNVECLTTDHYTGGMKQKYTVNQCRRQSEDSTFYLGERTYYIAAVEVEWDYSPQREWEKELHHLQEQNVSNAFLDKGEFYIGSKYKKVVYRQYTDSTFRVPVERKAEEEHLGILGPQLHADVGDKVKIIFKNMATRPYSIHAHGVQTESSTVTPTLPGETLTYVWKIPERSGAGTEDSACIPWAYYSTVDQVKDLYSGLIGPLIVCRRPYLKVFNPRRKLEFALLFLVFDENESWYLDDNIKTYSDHPEKVNKDDEEFIESNKMHAINGRMFGNLQGLTMHVGDEVNWYLMGMGNEIDLHTVHFHGHSFQYKHRGVYSSDVFDIFPGTYQTLEMFPRTPGIWLLHCHVTDHIHAGMETTYTVLQNEDTKSG |  |  |  |  | percentage of EdU-negative (hTERT-HMEC; [1]): 5.56 ± 0.7%; percentage of EdU-negative (hTERT-HMEC; [2]): 7.89 ± 0.25%; percentage of EdU-negative (MCF7; [1]): 22.7 ± 3%; percentage of EdU-negative (MCF7; [2]): 29.9 ± 0.94%
2 | MKISILLMFLWGLSCALPVTRYQNNESEDSEEWKGHLAQAPTPPLESSESSEGSKVSSEEQANEDPSDSTQSEEGLGSDDHQYIYRLAGGFSRSTGKGGDDKDDDEDDSGDDTFGDDDSGPGPKDRQEGGNSRLGSDEDSDDTIQASEESAPQGQDSAQDTTSESRELDNEDRVDSKPEGGDSTQESESEEHWVGGGSDGESSHGDGSELDDEGMQSDDPESIRSERGNSRMNSAGMKSKESGENSEQANTQDSGGSQLLEHPSRKIFRKSRISEEDDRSELDDNNTMEEVKSDSTENSNSRDTGLSQPRRDSKGDSQEDSKENLSQEESQNVDGPSSESSQEANLSSQENSSESQEEVVSESRGDNPDPTTSYVEDQEDSDSSEEDSSHTLSHSKSESREEQADSESSESLNFSEESPESPEDENSSSQEGLQSHSSSAESQSEESHSEEDDSDSQDSSRSKEDSNSTESKSSSEEDGQLKNIEIESRKLTVDAYHNKPIGDQDDNDCQDGY |  |  |  |  | percentage of EdU-negative (hTERT-HMEC; protein concentration 0.021 µM): 4.74 ± 0.51%; percentage of EdU-negative (hTERT-HMEC; protein concentration 0.21 µM): 14.1 ± 2.1%; percentage of EdU-negative (MCF7; protein concentration 0.021 µM): 24.6 ± 0.6%; percentage of EdU-negative (MCF7; protein concentration 0.21 µM): 26.3 ± 0.99%
3 | MKITGGLLLLCTVVYFCSSSEAASLSPKKVDCSIYKKYPVVAIPCPITYLPVCGSDYITYGNECHLCTESLKSNGRVQFLHDGSC | 5.21 ± 1.1 | 6.62 ± 0.67 | 23.6 ± 1.3 | 24.5 ± 2.9 | 
4 | MKITSTSCICPVLVCLCFVQRCYGTAHHSSIKVMRNQTKHIEGETEVHHRPKRGWVWNQFFVLEEHMGPDPQYVGKLHSNSDKGDGSVKYILTGEGAGTIFIIDDTTGDIHSTKSLDREQKTHYVLHAQAIDRRTNKPLEPESEFIIKVQDINDNAPKFTDGPYIVTVPEMSDMGTSVLQVTATDADDPTYGNSARVVYSILQGQPYFSVDPKTGVIRTALHNMDREAREHYSVVIQAKDMAGQVGGLSGSTTVNITLTDVNDNPPRFPQKHYQLYVPESAQVGSAVGKIKANDADTGSNADMTYSIINGDGMGIFSISTDKETREGILSLKKPLNYEKKKSYTLNIEGANTHLDFRFSHLGPFKDATMLKIIVGDVDEPPLFSMPSYLMEVYENAKIGTVVGTVLAQDPDSTNSLVRYFINYNVEDDRFFNIDANTGTIRTTKVLDREETPWYNITVTASEIDNPDLLSHVTVGIRVLDVNDNPPELAREYDIIVCENSKPGQVIHTISATDKDDFANGPRFNFFLDERLPVNPNFTLKDNEDNTASILTRRRRFSRTVQDVYYLPIMISDGGIPSLSSSSTLTIRVCACERDGRVRTCHAEAFLSSAGLSTGALIAILLCVLILLAIVVLFITLRRSKKEPLIISEEDVRENVVTYDDEGGGEEDTEAFDITALRNPSAAEELKYRRDIRPEVKLTPRHQTSSTLESIDVQEFIKQRLAEADLDPSVPPYDSLQTYAYEGQRSEAGSISSLDSATTQSDQDYHYLGDWGPEFKKLAELYGEIESERTT |  |  |  |  | percentage of EdU-negative (hTERT-HMEC; [4]): 5.06 ± 0.45%; percentage of EdU-negative (hTERT-HMEC; [5]): 7.93 ± 0.73%; percentage of EdU-negative (MCF7; [4]): 26 ± 2.9%; percentage of EdU-negative (MCF7; [5]): 37 ± 4.3%
5 | MKKFFTVAILAGSVLSTAHGSLLNLKAMVEAVTGRSAILSFVGYGCYCGLGGRGQPKDEVDWCCHAHDCCYQELFDQGCHPYVDHYDHTIENNTEIVCSDLNKTECDKQTCMCDKNMVLCLMNQTYREEYRGFLNVYCQGPTPNCSIYEPPPEEVTCSHQSPAPPAPP [Q9BZM2] | 5.18 ± 0.43 | 5.34 ± 1.1 | 24.06 ± 0.22 | 26 ± 1.2 | 
6 | MKKSGVLFLLGIILLVLIGVQGTPVVRKGRCSCISTNQGTIHLQSLKDLKQFAPSPSCEKIEIIATLKNGVQTCLNPDSADVKELIKKWEKQVSQKKKQKNGKKHQKKKVLKVRKSQRSRQKKTT |  |  |  |  | percentage of EdU-negative (hTERT-HMEC; [6]): 4.62 ± 0.47%; percentage of EdU-negative (hTERT-HMEC; [7]): 6.18 ± 1.4%; percentage of EdU-negative (MCF7; [6]): 24.8 ± 0.99%; percentage of EdU-negative (MCF7; [7]): 27.7 ± 2.3%
7 | MKLAALLGLCVALSCSSAAAFLVGSAKPVAQPVAALESAAEAGAGTLANPLGTLNPLKLLLSSLGIPVNHLIEGSQKCVAELGPQAVGAVKALKALLGALTVFG [Q96QR1] | 5.9 ± 0.79 | 5.2 ± 0.81 | 21.8 ± 1.8 | 23.7 ± 1.3 | 
8 | MKLAFLFLGPMALLLLAGYGCVLGASSGNLRTFVGCAVREFTFLAKKPGCRGLRITTDACWGRCETWEKPILEPPYIEAHHRVCTYNETKQVTVKLPNCAPGVDPFYTYPVAIRCDCGACSTATTECETI [Q86YW7] | 5.52 ± 0.71 | 5.1 ± 0.082 | 25.3 ± 2.8 | 25.8 ± 1.5 | 
